Data set [1] addresses T1, PUM1 PUF GR (repeat 6 Gly12/Arg16) (Homo sapiens, UniProt Q14671 SEQ:1-351).
T1 chain: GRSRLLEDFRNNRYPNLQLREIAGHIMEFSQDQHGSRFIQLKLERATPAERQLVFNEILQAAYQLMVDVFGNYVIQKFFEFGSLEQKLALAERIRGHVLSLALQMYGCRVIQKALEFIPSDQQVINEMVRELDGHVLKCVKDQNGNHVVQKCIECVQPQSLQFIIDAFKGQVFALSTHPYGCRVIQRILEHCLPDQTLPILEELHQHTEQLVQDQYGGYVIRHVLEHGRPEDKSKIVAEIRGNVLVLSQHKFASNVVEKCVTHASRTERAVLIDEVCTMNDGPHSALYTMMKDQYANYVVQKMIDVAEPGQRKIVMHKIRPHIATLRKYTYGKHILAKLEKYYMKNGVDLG
Kind of data set: EMSA; 10 mM HEPES pH 8.0, 50 mM KCl, 1 mM EDTA, RT. The following applies: tags: intein-CBD cleaved for EMSA; label: 5'-fluorescein. Here is the method:
(§1) Purified PUF domains were incubated at room temperature for 30 min with fluorescein labeled RNA oligonucleotides (Dharmacon) in 10 mM HEPES (pH 8.0), 1 mM EDTA, 50 mM KCl, 2 mM DTT, 0.1 mg/ml fatty acid-free BSA, and 0.02% Tween-20.
(A gel shift assay detects complexes by their altered migration in electrophoresis.)

The target of data set [2] is T2, PUM1 PUF CR (repeat 6 Cys12/Arg16) (Homo sapiens, UniProt Q14671 SEQ:1-351).
T2 chain: T1 chain with G218C
Kind of data set: EMSA; 10 mM HEPES pH 8.0, 50 mM KCl, 1 mM EDTA, RT. The following applies: tags: intein-CBD cleaved for EMSA; label: 5'-fluorescein. How it is done:
as §1

Substitutions are numbered along the chain they refer to.

Take AUUGCAUAUA (ssRNA) [NREU3C (Fl)]: the binding result in data set [1] and in data set [2] was “binds” throughout.

The values are drawn from patent US20130323813, “PEPTIDES FOR THE SPECIFIC BINDING OF RNA TARGETS” (THE UNIVERSITY OF WESTERN AUSTRALIA, published 2013).
